In patent US20170342148A1 (UNIVERSITE DE NANTES, published 2017):

Legend:
[1] = target: T1, recombinant protein IL-34 (Peprotech Ref 200-34, whole protein without signal peptide with His tag on … (UniProt Q6ZMJ4 21-242)); test: SPR (BIAcore T100), antibody captured, IL-34 as analyte
T1 construct: mature; also called IL-34 protein; recombinant IL-34; not shown: C-terminal His tag
T1 sequence (looked up): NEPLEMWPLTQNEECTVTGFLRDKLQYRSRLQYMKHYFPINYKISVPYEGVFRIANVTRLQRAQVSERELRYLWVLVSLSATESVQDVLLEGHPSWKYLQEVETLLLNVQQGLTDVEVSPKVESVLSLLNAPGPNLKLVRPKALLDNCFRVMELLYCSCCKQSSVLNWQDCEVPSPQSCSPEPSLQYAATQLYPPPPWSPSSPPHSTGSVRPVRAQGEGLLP
Experimental: (§1) Theses interaction were performed at 25° C., in HBS-P+ buffer (HEPES 10 mM pH 7.4; NaCl 150 mM; P20 0.05%) by administrating different concentrations of IL-34 obtained by serial dilution of the protein IL-34 (Peprotech Ref 200-34, whole protein without signal peptide with His tag on C-terminal).
(§2) The regeneration is performed by administering 10 mM of Glycine-HCl buffer at pH=1.7 allowing dissociating the antibody IL-34 from immobilized polyclonal antibody.

[2] = target: T1, recombinant protein IL-34 (Peprotech …); test: SPR (BIAcore T100), antibody captured on immobilised polyclonal anti-mouse antibody, IL-34 as analyte, 25 °C, 1:1 model
Experimental: as §1, §2
The obtained results are shown by sensograms of FIG. 2.

[3] = target: T2, M-CSF receptor (R&D-Systems ref: 329-MR) (UniProt P07333 20-512); test: SPR (BIAcore T100), antibody injected over immobilised M-CSF-R
T2 construct: Bought soluble receptor, immobilised covalently on a CM5 chip; also called CSF-1 receptor; receptor M-CSF-R
T2 sequence (P07333 20-512 limits assumed): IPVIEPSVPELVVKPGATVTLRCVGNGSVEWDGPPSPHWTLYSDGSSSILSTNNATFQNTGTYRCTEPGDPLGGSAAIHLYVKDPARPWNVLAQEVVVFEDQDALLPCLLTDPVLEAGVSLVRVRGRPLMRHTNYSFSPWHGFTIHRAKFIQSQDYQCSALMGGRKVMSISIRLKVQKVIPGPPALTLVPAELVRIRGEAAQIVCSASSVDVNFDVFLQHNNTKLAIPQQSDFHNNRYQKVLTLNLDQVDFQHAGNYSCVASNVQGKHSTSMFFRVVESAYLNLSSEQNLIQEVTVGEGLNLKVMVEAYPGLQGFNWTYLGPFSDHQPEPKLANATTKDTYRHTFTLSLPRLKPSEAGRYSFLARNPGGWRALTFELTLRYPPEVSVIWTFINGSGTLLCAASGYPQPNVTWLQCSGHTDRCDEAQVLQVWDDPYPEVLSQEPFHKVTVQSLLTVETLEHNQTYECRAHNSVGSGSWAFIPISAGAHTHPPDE
Experimental: The measurement of surface plasmon resonance (SPR) was performed on BIACore T100. The microarrays CM5 (CM-dextran, 1-ethyl-3-(3-[…]) carbodiimide hydrochloride (EDC) and N-Hydroxysuccinimide (NHS) have been purchased by GE Healthcare BIAcore and used according to manufacture instructions.
The ligand, M-CSF receptor (R&D-Systems ref: 329-MR) was immobilized covalently on the CM5 microarray surface. Capture level of […] is comprised between 600 and 800 RU.
Theses interaction were performed at 25° C., in HBS-P+ buffer (HEPES 10 mM pH 7.4; NaCl 150 mM; P20 0.05%).

koff [1]: < 1e-06 s⁻¹ | Kd [2]: 9.4 pM | koff [2]: 2.9e-07 s⁻¹ | kon [2]: 31000 M⁻¹ s⁻¹ | binding result [3]: no binding (tested: 10 nM)
B1: murine anti-IL-34 antibody (clone BT34) (antibody, V domains shown)
VH: EVQLQQFGAELVKPGASVKISCKASGYTFTDYNMDWVKQSHGKSLEWIGDINPNYESTTYNQKFKGKATLTVDRSSSTAYMELRSLTSEDTAVYYCLRSGGDYWGQGTTLTVSS
VL: DVLMTQTPLSLPVGLGDQASISCRSSQTIVHSNGKTYLEWYLQKPGQSPKLLIYKVSNRFSGVPDRFSGSGSGTDFTLKISRVEAEDLGVYYCFQGSHVPLTFGAGTKLELK
notes: Murine monoclonal antibody from a hybridoma; No single sentence ties these numbers to BT34; also called anti-IL-34 antibody BT34; anti-IL-34 BT34 clone
